The values below come from paper PMC4620744.

Test [1] concerns the target H2A-H2B^30-130 (S. cerevisiae) (UniProt P04911). As to the kind of experiment: ITC. A general note: Isothermal titration calorimetry measures the heat released or taken up as one component is titrated into another.
In test [2] the target is full-length H2A-H2B (S. cerevisiae) (UniProt P04911). As to the kind of experiment: fluorescence polarisation.
Test [3] has the same target. Kind of test: ITC.
Test [4] concerns the target full-length FACT (Spt16-Pob3 heterodimer) (S. cerevisiae) (UniProt P32558). Kind of test: ITC.
For test [5] the target is unchanged. Kind of test: native gel or EMSA. For orientation: In EMSA bound probe runs differently from free probe, usually more slowly.
For test [6], the target named is Fluorescein-Spt16 MBD (Spt16^965-990) (S. cerevisiae) (UniProt P32558). Kind of test: fluorescence polarisation. In general terms: In fluorescence polarisation assays a small probe gives low polarisation when free and higher when bound to something large.
Test [7] concerns the target H2A-H2B^30-130 bearing H2B Y45A and M62A (S. cerevisiae) (UniProt P04911). As to the kind of experiment: ITC.
The target in test [8] is H2A-H2B^30-130 bearing H2B M62A (S. cerevisiae) (UniProt P04911). As to the kind of experiment: ITC.
In test [9] the target is H2A-H2B^30-130 bearing H2B Y45A (S. cerevisiae) (UniProt P04911). Kind of test: ITC.

The substance “Pob3-MBD DED509-511AAA (from UniProt Q04636 505-529) (peptide)” had a fold decrease in binding against the unmutated peptide in test [1] of 38 fold. With “Spt16-MBD SEEE965-968AAAA (from UniProt P32558 965-990) (peptide)”, the fold decrease in affinity against the unmutated peptide in [1] was found to be 12 fold. On to “Spt16-MBD (Spt16^965-990) (from UniProt P32558 965-990) (peptide)”, for which, in test [2], the IC50 is 21.1 µM and the inhibition constant (Ki) stood at 2.3 µM. Consider “Spt16 E968A (from UniProt P32558 965-990) (peptide)”, for which, in [1], the Kd came to 5 µM.

Take Spt16-C (domain or fragment): in test [3], the equilibrium dissociation constant (Kd) was found to be 0.8 µM and the stoichiometry N is 1. In test [1], “Spt16-MBD SEDD975-978AAAA (from UniProt P32558 965-990) (peptide)” gave a fold decrease in affinity against the unmutated peptide of 20 fold. Still for that read-out and setting: the result for “Spt16-MBD EDEE987-990AAAA (from UniProt P32558 965-990) (peptide)” reads 15 fold. In test [4], “full-length H2A-H2B (from UniProt P04911 1-132; P02293 1-131) (complex)” displayed a KD of one of two independent binding sites of 0.34 µM, a KD of the other of two independent binding sites of 1.62 µM and a stoichiometry N of 2. In addition, in [5], the apparent KD of one of two EMSA binding events was found to be 0.1 µM, the apparent KD of the other of two EMSA binding events is 0.15 µM and the stoichiometry N turned out to be 2. This substance also had a Kd in test [6] of 2.3 µM. Consider “Pob3-MBD (Pob3^505-529) (from UniProt Q04636 505-529) (peptide)”, for which the values for the fold decrease in affinity against H2A-H2B^30-130 in test [7], in test [8] and in test [9] were 41 fold, 9 fold and 12 fold, respectively. The substance also displayed an IC50 in [2] of 15.7 µM. Also, the Ki in test [2] came to 1.3 µM. As for “Pob3 D509A (from UniProt Q04636 505-529) (peptide)”, in [1], the equilibrium dissociation constant (Kd) is 35 µM. In [1], “Spt16-MBD DES981-983AAA (from UniProt P32558 965-990) (peptide)” came in with a fold decrease in affinity against the unmutated peptide of 10 fold.

With “Spt16^958-990 (from UniProt P32558 958-990) (peptide)”, the fold decrease in binding against H2A-H2B^30-130 came to 42 fold in [7], 12 fold in [8] and 25 fold in test [9]. For the substance “Pob3-MBD DNDAD517-521AAAAA (from UniProt Q04636 505-529) (peptide)”, in [1], the fold decrease in binding against the unmutated peptide amounted to 17 fold. For the substance “Pob3-MBD F512A (from UniProt Q04636 505-529) (peptide)”, the fold decrease in binding against the unmutated peptide in test [1] is over 100 fold. Regarding “Spt16-MBD Y972A (from UniProt P32558 965-990) (peptide)”, the fold decrease in binding against the unmutated peptide in [1] worked out at 48 fold.

By IC50 is commonly meant the concentration needed to halve the response being measured. Lower therefore signals inhibition by little substance. For orientation: Ki means the dissociation constant of the complex between target and ligand, obtained from inhibition or displacement. A lower Ki goes with a stronger hold on the target. For orientation: Kd means the concentration at which binding is half-saturated. A higher Kd goes with lower affinity. A word on the stoichiometry N: it is the number of molecules, sites or subunits per partner or assembly.
